{"source": "patent US7968692B2", "about": "“Elongase genes and uses thereof” (Abbott Laboratories, priority 1998, dated 2011)", "molecules": {"B1": {"name": "GLELO: M. alpina GLA elongase, 318 amino acids, encoded by GLELO cDNA (SEQ ID NO:2) in plasmid pRPB2 (protein, listed as Mortierella alpina)", "chain": "MESIAPFLPSKMPQDLFMDLATAIGVRAAPYVDPLEAALVAQAEKYIPTIVHHTRGFLVAVESPLARELPLMNPFHVLLIVLAYLVTVFVGMQIMKNFERFEVKTFSLLHNFCLVSISAYMCGGILYEAYQANYGLFENAADHTFKGLPMAKMIWLFYFSKIMEFVDTMIMVLKKNNRQISFLHVYHHSSIFTIWWLVTFVAPNGEAYFSAALNSFIHVIMYGYYFLSALGFKQVSFIKFYITRSQMTQFCMMSVQSSWDMYAMKVLGRPGYPFFITALLWFYMWTMLGLFYNFYRKNAKLAKQAKADAAKEKARKLQ"}, "B2": {"name": "CEELO1: C. elegans elongase (SEQ ID NO:4), 288 amino acids, expressed in yeast from pRET-22 (protein)", "chain": "MAQHPLVQRLLDVKFDTKRFVAIATHGPKNFPDAEGRKFFADHFDVTIQASILYMVVVFGTKWFMRNRQPFQLTIPLNIWNFILAAFSIAGAVKMTPEFFGTIANKGIVASYCKVFDFTKGENGYWVWLFMASKLFELVDTIFLVLRKRPLMFLHWYHHILTMIYAWYSHPLTPGFNRYGIYLNFVVHAFMYSYYFLRSMKIRVPGFIAQAITSLQIVQFIISCAVLAHLGYLMHFTNANCDFEPSVFKLAVFMDTTYLALFVNFFLQSYVLRGGKDKYKAVPKKKNN", "modifications": "Caenorhabditis elegans"}, "B3": {"name": "334(pRELO-2): individual clone of S. cerevisiae 334 overexpressing S. cerevisiae elongase ELO2 in pYX242 (pRELO) (protein, UniProt P25358 1-347, looked up)", "Fatty acid elongase 2": "MNSLVTQYAAPLFERYPQLHDYLPTLERPFFNISLWEHFDDVVTRVTNGRFVPSEFQFIAGELPLSTLPPVLYAITAYYVIIFGGRFLLSKSKPFKLNGLFQLHNLVLTSLSLTLLLLMVEQLVPIIVQHGLYFAICNIGAWTQPLVTLYYMNYIVKFIEFIDTFFLVLKHKKLTFLHTYHHGATALLCYTQLMGTTSISWVPISLNLGVHVVMYWYYFLAARGIRVWWKEWVTRFQIIQFVLDIGFIYFAVYQKAVHLYFPILPHCGDCVGSTTATFAGCAIISSYLVLFISFYINVYKRKGTKTSRVVKRAHGGVAAKVNEYVNVDLKNVPTPSPSPKPQHRRKR"}}, "assay_type_in_all_cases": "cell-based, Saccharomyces cerevisiae", "key": {"[1]": {"test_system": "S. cerevisiae 334", "assay": "GLA elongase (GLELO) activity and substrate specificity in yeast", "method": "To further confirm the activity of the GLA elongase encoded by the pRPB2 recombinant plasmid, elongase activity screening was repeated on the yeast clone SC334 containing pRPB2 plasmid. This experiment was also conducted to assure consistent lipid extraction and to detect the activity of GLA elongase by averaging four independent experiments. The S. cerevisiae 334 glycerol stock containing pRPB2 was plated onto minimal media agar plates lacking uracil. Individual colonies were randomly picked and grown in minimal medium lacking uracil, as described in Example VIII. The four independent cultures were combined, and a 5 ml aliquot was used as an inoculum for four separate 50 ml cultures. The cultures were then grown in the presence of GLA and were subjected to fatty acid analysis along with a negative control of S. cerevisiae 334 containing pYES2, as described in Example VIII. The GLA elongase activity of each of the four independent samples of 334(pRPB2) appeared to be consistent with an average conversion of 62% GLA to DGLA.\nTo analyze the substrate specificity of the GLA elongase, the culture of 334(pRPB2) was tested with different fatty acid substrates besides GLA (e.g., SA(18:0), OA(18:1), LA(18:2n-6), AA(20:4n-6), ADA(22:4n-6), ALA(18:3n-3), STA(18:4n-3), and EPA(20:5n-3)). […] GLA elongase was able to convert 73% of STA to 20:4n-3 (FIG. 25)."}, "[2]": {"test_system": "S. cerevisiae 334", "assay": "Co-expression of GLELO and M. alpina Δ5-desaturase in yeast", "method": "Once DGLA (20:3n-6) is produced by the GLA elongase, the Δ5-desaturase can convert it to AA (20:4n-6) in a desired co-expression system. […] Therefore, the GLA elongase has the ability to work with other enzymes in the n-6 PUFA synthetic pathway to produce desirable fatty acids.\nTo determine whether the above conversion is also true in n-3 pathways, the similar co-expression experiments were carried out in the presence of 25 μM STA. Again, if both enzymes are expressed, the STA substrate will be converted to 20:4n-3 which will then be converted to EPA (20:5n-3) by the Δ5-desaturase."}, "[3]": {"test_system": "yeast", "assay": "Co-expression of CEELO1 and M. alpina Δ5 desaturase in yeast", "settings": "pRET22 and pCGR4 co-expressed, FIG. 63", "method": "Parallel to Examples III and XI, the C. elegans CEELO1 gene in the plasmid pRET22 and M. alpina Δ5 desaturase (pCGR-4; see Example III) were co-expressed in yeast to determine if AA or EPA could be produced from exogenously added GLA or STA, respectively. When a yeast culture containing both pRET22 and pCGR4 plasmids was grown in the presence of 50 μM GLA or STA in media lacking leucine and uracil, the percent conversion to the final products of AA and EPA, respectively, appeared identical (27% conversion)(see FIG. 63). Thus, simultaneous heterologous expression of CEEL01 and a Δ5 desaturase results in the biosynthesis of AA and EPA from GLA and STA, respectively in yeast."}, "[4]": {"test_system": "S. cerevisiae 334", "assay": "C. elegans elongase CEELO1 activity in yeast", "method": "The plasmids pRET-21 and -22 were transformed into S. cerevisiae 334 as previously described (see Example III) and the resulting yeast cultures (334(pRET-21) and 334(pRET-22)) grown in 100 ml of selective media without leucine (Ausubel et al, supra) for 48 hours at 20° C. in the presence of 50 μM GLA and AA. […] The percent conversion of GLA to DGLA by 334(pRET-21) and 334(pRET-22) was 11.1% and 19.4% respectively with an average of 15.25%.\nTo further confirm the GLA elongation activity of CEELO1, the experiment described in the paragraphs above was repeated with the exception that GLA and AA were added to cultures of 334(pRET-22) separately. […] In this case, the percent conversion appears to be double that described in previous results (see FIG. 48) and may either be due to the absence of the additional substrate (AA) or the subculturing of the yeast.\nAdditionally, to further determine the substrate specificity of CEELO1, 50 μM of each substrate besides GLA (e.g., SA (18:0), OA (18:1), LA (18:2n-6), DGLA (20:3n-g), AA ([…]), ADA (22:4n-6), ALA (18:3n-3), PA ([…]), EPA (20:5n-3) and STA ([…])) was added individually to cultures of 334(pRET-22) and grown for 48 hours at 20° C., as described in Example XVII. […] The CEELO1 elongated 13% of STA incorporated to ETA (20:4n-3)(see FIG. 62)."}, "[5]": {"test_system": "S. cerevisiae 334", "assay": "Comparison of MAELO and S. cerevisiae ELO2 PUFA elongase activity in baker's yeast", "settings": "25 μM GLA; FIG. 12", "text": "The ELO2 gene encoding for the yeast elongase was cloned from an S. cerevisiae genomic library (Origene, Rockville, Md.) using the primers RO514 (SEQ ID NO: 94) (5′-GGCTATGGATCCATGAATTCACTCGTTACTCAATATG-3′) and RO515 (SEQ ID NO: 95)(5′-CCTGCCAAGCTTTTACCTTTTTCTTCTGTGTTGAG-3′) incorporating the restriction sites (underlined) BamHI and HindIII (respectively). The ELO2 gene was cloned into the vector pYX242 at the BamHI and HindIII sites, designated pRELO, transformed into the S. cerevisiae host 334 (Hoveland et al., supra) and screened for PUFA elongase activity. The vector plasmid was used as a negative control and 334(pRAE-5) was grown to compare the PUFA elongase activity. The cultures were grown as previously described with no galactose in the media and 25 μM GLA added as a substrate. […] Additionally, when DGLA produced is expressed as a percent of the total lipids (shown in parenthesis, FIG. 12), the clones 334(pRELO-1) and 334 (pRELO-2) produced 0.153% and 0.2% DGLA respectively, while 334(pYX242) produced 0.185% DGLA. […] The M. alpina PUFA elongase activity is specific for this conversion as evidenced by the higher amount of DGLA produced compared to the control, 334(pYX242)."}, "[6]": {"settings": "50 μM GLA and AA together, 48 hours at 20° C., FIG. 48"}, "[7]": {"settings": "GLA and AA added separately, FIG. 61"}}, "data": [{"molecule": "B1", "values": [{"measurement": "average conversion of GLA to DGLA", "setting": "[1]; 25 μM GLA, four independent cultures, FIG. 24", "result": 62, "unit": "%"}, {"measurement": "utilization of other substrates SA, OA, LA, AA, ADA, ALA, STA, EPA", "setting": "[1]; identical assay conditions", "result": "the only other substrate utilized by the elongase enzyme was STA"}, {"measurement": "conversion of STA to 20:4n-3", "setting": "[1]; substrate STA, FIG. 25", "result": 73, "unit": "%"}, {"measurement": "average conversion of GLA to AA", "setting": "[2]; 25 μM GLA, co-expressed with Δ5-desaturase (pRPE31), FIG. 26A", "result": 27, "unit": "%"}, {"measurement": "production of EPA", "setting": "[2]; 25 μM STA, co-expressed with Δ5-desaturase, FIG. 26B", "result": "approx. 40%"}]}, {"molecule": "B2", "values": [{"measurement": "percent conversion of GLA to final product AA", "setting": "[3]; 50 μM GLA", "result": 27, "unit": "%"}, {"measurement": "percent conversion of STA to final product EPA", "setting": "[3]; 50 μM STA", "result": 27, "unit": "%"}, {"measurement": "DGLA, average of the total lipid in the two samples", "setting": "[4]; [6]", "result": 1.79, "unit": "%"}, {"measurement": "percent conversion of GLA to DGLA", "setting": "[4]; [6]", "result": 19.4, "unit": "%"}, {"measurement": "elongation of AA or any endogenous fatty acid", "setting": "[4]; 50 μM GLA and AA together, FIG. 48", "result": "almost no elongation"}, {"measurement": "STA incorporated elongated to ETA (20:4n-3)", "setting": "[4]; 50 μM STA, 48 hours at 20° C., FIG. 62", "result": 13, "unit": "%"}, {"measurement": "elongation of other exogenously added substrates (SA, OA, LA, DGLA, AA, ADA, ALA, PA, EPA, STA)", "setting": "[4]; 50 μM of each substrate individually, FIG. 62", "result": "STA was the only exogenously added substrate that was elongated"}, {"measurement": "conversion rate of GLA to DGLA", "setting": "[4]; [7]", "result": 38.2, "unit": "%"}, {"measurement": "elongation activity of AA", "setting": "[4]; [7]", "result": "No elongation activity of AA was detected"}, {"measurement": "average percent conversion of GLA to DGLA", "setting": "[4]; average of 334(pRET-21) and 334(pRET-22), 50 μM GLA and AA together", "result": 15.25, "unit": "%"}, {"measurement": "conversion rate of endogenous 16:1n-7 to 18:1n-7", "setting": "[4]; endogenous substrate", "result": 9.12, "unit": "%"}]}, {"molecule": "B3", "values": [{"measurement": "DGLA produced as a percent of the total lipids", "setting": "[5]", "result": 0.2, "unit": "%"}, {"measurement": "amount of 20:3n-6 or DGLA produced relative to negative control pYX242", "setting": "[5]", "result": "twice"}]}]}
